Residue numbers refer to the chain shown, from its start. Names may count otherwise. One block for each binder: values may come before it.
Molecular target: T1, TNFR1 (Homo sapiens, UniProt P19438)
T1 chain: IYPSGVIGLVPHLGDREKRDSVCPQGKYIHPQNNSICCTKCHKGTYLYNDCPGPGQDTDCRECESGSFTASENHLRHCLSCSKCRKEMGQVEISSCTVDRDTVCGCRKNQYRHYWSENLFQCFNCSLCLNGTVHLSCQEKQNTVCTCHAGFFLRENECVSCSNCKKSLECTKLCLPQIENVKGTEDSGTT
Assay: yeast display SC50

B1: E36P (designed binder)
chain: MTLQELLREEALRRAEAEAFRYALELLAEKFPEQKPYLLDLAEEIESQIRSLSGVDVEDVRKFLDKEWAWVKELLAEHPAELAEVEAARAARLAELRAEVEAKVAA
- apparent Kd (screen): 0.49 nM

B2: L24P (designed binder)
chain: B1 chain with L24P, P36E
- apparent Kd (screen): 26.9 nM

B3: L27N (designed binder)
chain: B1 chain with L27N, P36E
- apparent Kd (screen): 0.49 nM

B5: A42Q (designed binder)
chain: B1 chain with P36E, A42Q
- apparent Kd (screen): 2.05 nM

B6: L24F (designed binder)
chain: B1 chain with L24F, P36E
- apparent Kd (screen): 0.653 nM

B7: R61F (designed binder)
chain: B1 chain with P36E, R61F
- apparent Kd (screen): 1.05 nM

B8: S53I (designed binder)
chain: B1 chain with P36E, S53I
- apparent Kd (screen): 2.25 nM

B9: Q48S (designed binder)
chain: B1 chain with P36E, Q48S
- apparent Kd (screen): 0.593 nM

B11: D65A (designed binder)
chain: B1 chain with P36E, D65A
- apparent Kd (screen): 0.653 nM

B13: E44A (designed binder)
chain: B1 chain with P36E, E44A
- apparent Kd (screen): 7.78 nM

B14: T2Q (designed binder)
chain: B1 chain with T2Q, P36E
- apparent Kd (screen): 1.27 nM

B15: E25A (designed binder)
chain: B1 chain with E25A, P36E
- apparent Kd (screen): 0.405 nM

B16: E36G (designed binder)
chain: B1 chain with P36G
- apparent Kd (screen): 0.718 nM

B17: F63M (designed binder)
chain: B1 chain with P36E, F63M
- apparent Kd (screen): 1.16 nM

B21: E36N (designed binder)
chain: B1 chain with P36N
- apparent Kd (screen): 1.27 nM

B27: V55Y (designed binder)
chain: B1 chain with P36E, V55Y
- apparent Kd (screen): 0.956 nM

B28: S53Y (designed binder)
chain: B1 chain with P36E, S53Y
- apparent Kd (screen): 6.43 nM

B30: R8Q (designed binder)
chain: B1 chain with R8Q, P36E
- apparent Kd (screen): 0.653 nM

B31: R8C (designed binder)
chain: B1 chain with R8C, P36E
- apparent Kd (screen): 0.593 nM

B32: L64G (designed binder)
chain: B1 chain with P36E, L64G
- apparent Kd (screen): 1.69 nM

B33: P32A (designed binder)
chain: B1 chain with P32A, P36E
- apparent Kd (screen): 0.653 nM

B36: G54P (designed binder)
chain: B1 chain with P36E, G54P
- apparent Kd (screen): 12.5 nM

B37: S53H (designed binder)
chain: B1 chain with P36E, S53H
- apparent Kd (screen): 0.653 nM

B40: E44N (designed binder)
chain: B1 chain with P36E, E44N
- apparent Kd (screen): 24.4 nM

B41: L27H (designed binder)
chain: B1 chain with L27H, P36E
- apparent Kd (screen): 0.869 nM

B42: L39R (designed binder)
chain: B1 chain with P36E, L39R
- apparent Kd (screen): 1.4 nM

B45: E16Y (designed binder)
chain: B1 chain with E16Y, P36E
- apparent Kd (screen): 0.446 nM

B47: T2D (designed binder)
chain: B1 chain with T2D, P36E
- apparent Kd (screen): 1.54 nM

B48: V60Y (designed binder)
chain: B1 chain with P36E, V60Y
- apparent Kd (screen): 0.539 nM

B49: E67H (designed binder)
chain: B1 chain with P36E, E67H
- apparent Kd (screen): 0.335 nM

B50: D59E (designed binder)
chain: B1 chain with P36E, D59E
- apparent Kd (screen): 0.539 nM

B52: L52A (designed binder)
chain: B1 chain with P36E, L52A
- apparent Kd (screen): 0.446 nM

B53: E16P (designed binder)
chain: B1 chain with E16P, P36E
- apparent Kd (screen): 9.41 nM

B59: E67V (designed binder)
chain: B1 chain with P36E, E67V
- apparent Kd (screen): 20.2 nM

Now from value to binder:

- apparent Kd (screen): 0.593 nM
B4: A80I (designed binder)
chain: B1 chain with P36E, A80I

- apparent Kd (screen): 0.869 nM
B10: K103F (designed binder)
chain: B1 chain with P36E, K103F

- apparent Kd (screen): 0.539 nM
B12: A94V (designed binder)
chain: B1 chain with P36E, A94V

- apparent Kd (screen): 0.79 nM
B18: H78S (designed binder)
chain: B1 chain with P36E, H78S

- apparent Kd (screen): 0.593 nM
B19: A94Y (designed binder)
chain: B1 chain with P36E, A94Y

- apparent Kd (screen): 0.79 nM
B20: L75Q (designed binder)
chain: B1 chain with P36E, L75Q

- apparent Kd (screen): 12.5 nM
B22: W68K (designed binder)
chain: B1 chain with P36E, W68K

- apparent Kd (screen): 0.593 nM
B23: R89Q (designed binder)
chain: B1 chain with P36E, R89Q

- apparent Kd (screen): 1.4 nM
B24: L74C (designed binder)
chain: B1 chain with P36E, L74C

- apparent Kd (screen): 0.653 nM
B25: A69D (designed binder)
chain: B1 chain with P36E, A69D

- apparent Kd (screen): 0.539 nM
B26: V71I (designed binder)
chain: B1 chain with P36E, V71I

- apparent Kd (screen): 0.593 nM
B29: E84F (designed binder)
chain: B1 chain with P36E, E84F

- apparent Kd (screen): 0.718 nM
B34: K103W (designed binder)
chain: B1 chain with P36E, K103W

- apparent Kd (screen): 13.8 nM
B35: L74P (designed binder)
chain: B1 chain with P36E, L74P

- apparent Kd (screen): 0.593 nM
B38: L75K (designed binder)
chain: B1 chain with P36E, L75K

- apparent Kd (screen): 3 nM
B39: L74D (designed binder)
chain: B1 chain with P36E, L74D

- apparent Kd (screen): 2.73 nM
B43: W70C (designed binder)
chain: B1 chain with P36E, W70C

- apparent Kd (screen): 0.79 nM
B44: A106Y (designed binder)
chain: B1 chain with P36E, A106Y

- apparent Kd (screen): 1.05 nM
B46: R89N (designed binder)
chain: B1 chain with P36E, R89N

- apparent Kd (screen): 0.653 nM
B51: V100I (designed binder)
chain: B1 chain with P36E, V100I

- apparent Kd (screen): 0.956 nM
B54: R89E (designed binder)
chain: B1 chain with P36E, R89E

- apparent Kd (screen): 0.49 nM
B55: A87K (designed binder)
chain: B1 chain with P36E, A87K

- apparent Kd (screen): 1.69 nM
B56: H78P (designed binder)
chain: B1 chain with P36E, H78P

- apparent Kd (screen): 0.956 nM
B57: A69E (designed binder)
chain: B1 chain with P36E, A69E

- apparent Kd (screen): 1.27 nM
B58: L74N (designed binder)
chain: B1 chain with P36E, L74N

Reference: publication PMC12416549 (2024)
